This note sets out measurements from paper PMC9418332, “Perforin-2 clockwise hand-over-hand pre-pore to pore transition mechanism” (Nature Communications, 2022).

This data set deals with the molecule itself. As to the kind of experiment: high-speed atomic force microscopy (HS-AFM); pre-pore rings on supported E. coli lipid bilayer, buffer acidified with HCl to ~pH 4.0 in the fluid cell; imaging at 200 ms temporal resolution, room temperature; pre-pore ring openings and pore arcs.

B1: Ectodomain of mPFN2 (Perforin-2) (domain or fragment, mouse (printed as mPFN2), UniProt A1L314 20-652, looked up)
chain: DKPLGETGTTGFQICKNALKLPVLEVLPGGGWDNLRNVDMGRVMDLTYTNCKTTEDGQYIIPDEVYTIPQKESNLEMNSEVLESWMNYQSTTSLSINTELALFSRVNGKFSTEFQRMKTLQVKDQAVTTRVQVRNRIYTVKTTPTSELSLGFTKALMDICDQLEKNQTKMATYLAELLILNYGTHVITSVDAGAALVQEDHVRSSFLLDNQNSQNTVTASAGIAFLNIVNFKVETDYISQTSLTKDYLSNRTNSRVQSFGGVPFYPGITLETWQKGITNHLVAIDRAGLPLHFFIKPDKLPGLPGPLVKKLSKTVETAVRHYYTFNTHPGCTNVDSPNFNFQANMDDDSCDAKVTNFTFGGVYQECTELSGDVLCQNLEQKNLLTGDFSCPPGYSPVHLLSQTHEEGYSRLECKKKCTLKIFCKTVCEDVFRVAKAEFRAYWCVAAGQVPDNSGLLFGGVFTDKTINPMTNAQSCPAGYIPLNLFESLKVCVSLDYELGFKFSVPFGGFFSCIMGNPLVNSDTAKDVRAPSLKKCPGGFSQHLAVISDGCQVSYCVKAGIFTGGSLLPVRLPPYTKPPLMSQVATNTVIVTNSETARSWIKDPQTNQWKLGEPLELRRAMTVIHGDSNGMSGG
notes: Perforin-2 (PFN2, MPEG1), mouse (printed as mPFN2), ectodomain, UniProt A1L314 residues 20-652; Applied as monomers (0.043 mg/ml) and self-assembles on the support; The 1D4 tag is inferred from the resin; also called MPEG1; source: HEK293T or HEK293S cells, transient transfection; purified from the media using anti-1D4 antibody-coupled agarose resin
With B1, the stoichiometry N (usually a count of units in the complex or per binding partner) came to 16 subunits.
